Data: article PMC9574934, “Targeting the Phosphatidylserine-Immune Checkpoint with a Small-Molecule Maytansinoid Conjugate” (Journal of Medicinal Chemistry, 2022)

How the values were obtained:
[1] = Single intravenous dose pharmacokinetic study; details: for AUC(0-24 hr) Conjugate: intact conjugate; for AUC(0-24 hr) Conjugate / CL / Vss / AUC(0-24 hr) Drug: male ICR mice; for AUC(0-24 hr) Conjugate / CL / Vss: 5 mg/kg intravenous; for CL / Vss: n = 3; for AUC(0-24 hr) Drug: 5 mg/kg intravenous of conjugate; for loss of AUC: intact conjugate AUC relative to 40a
Procedure: Six-week-old male ICR mice, from the Biolasco Taiwan, were divided into groups of three and dosed at 5 mg/kg intravenously. Blood samples were drawn from each animal at time points of 0.003, 0.083, 0.25, 0.5, 1, 2, 4, 6, 8, and 24 h and stored on ice (0–4 °C). With centrifugation (3000 rpm for 15 min at 4 °C in a Beckman Model Allegra 6R centrifuge), plasma was separated from the blood and stored in frozen conditions (−20 °C). […] The mice were sacrificed, and the blood samples of 0.5 mL each and tumor samples were collected at 0.5, 2, 6, 24, 72, and 168 h after administration. Each time point group included 4 mice. Mouse blood samples were collected in EDTA tubes and centrifuged at 13,000 rpm for 5 min at 4°C for plasma collection. Plasma and the harvested tumor samples were stored at −80°C until use. Fifty microliters of mouse plasma or the sample of tumor homogenated in ddH2O with dilution ratio of 1:3 (w/v) by MiniBeadbeater-16 (BioSpec Products Inc., OK, USA) was mixed with 100 μL of acetonitrile containing 250 ng/mL BPR0L187. The mixture was vortexed for 30 s and then centrifuged at 15000g for 20 min. The supernatant was transferred to a clean tube, and 15 μL of the supernatant was injected onto LC/MS/MS. Plasma samples were analyzed by liquid chromatography tandem mass spectrometry (LC/MS/MS). The chromatographic system Agilent 1200 series LC system and an Agilent ZORBAX Eclipse XDB-C8 column (5 μm, 3.0 × 150 mm) interfaced to an MDS Sciex API4000 tandem mass spectrometer equipped with an ESI in the positive scanning mode at 600 °C was used. Data acquisition was collected via multiple reactions monitoring (MRM). A gradient system was employed for the separation of analyte and IS. Mobile phase A was 10 mM ammonium acetate aqueous solution containing 0.1% formic acid. Mobile phase B was acetonitrile. The gradient profile was as follows: 0.0–1.1 min, 50% B; 1.2–3.7 min, 55%B–90%B; 3.8–5.0 min, 90%B–50%B. The flow rate was 1.5 mL/min. The autosampler was programmed to inject 15 μL of the sample every 5 min.

[2] = test system: MIA PaCa-2 human xenografts; experiment: MIA PaCa-2 xenograft antitumor efficacy
Procedure: Cancer cells, suspending in phenol red free medium/DPBS, were mixed with Matrigel (356237, BD Biosciences, San Jose CA, USA) in a 1:1 ratio. Human pancreatic cancer MIA PaCa-2 (1 × 10^6 cells) or triple-negative breast cancer HCC1806 (1 × 10^6cells) cells were subcutaneously inoculated to left flanks of male nude mice 6 weeks old (Biolasco, Taiwan) or female nude mice 6 weeks old by using a 1 mL syringe (needle 24G × 1 in., 0.55 × 25 mm; TERUMO). Tumor dimensions were measured twice a week with an electronic caliper (FOW54-200-777, PRO-MAX, Newton, Massachusetts, USA), and the volume of the subcutaneously growing tumor in mm^3 was calculated by the following formula: volume = (length × width[2])/2. Conjugates were formulated 10% DMA/20% Cremophor EL/70% injectable solution of 5% dextrose (D5W) for treating MIA PaCa-2 and HCC1806 xenograft tumors. […] Body weight of the mice and tumor volume were measured twice weekly.

[3] = MIA PaCa-2 xenograft, 2 mg/kg intravenous (Figure S4)
[4] = 1 mg/kg intravenously twice weekly for two weeks (Figure 4)

Row | Compound | AUC(0-24 hr) Conjugate [1] [ng·h/mL] | CL [1] [mL/min/kg] | Vss [1] [L/kg] | AUC(0-24 hr) Drug ([1]; released payload 14) [ng·h/mL] | antitumor activity [2, 3] | body weight change during treatment [2, 3] | antitumor efficacy [2, 4] | body weight change during treatment [2, 4] | loss of AUC [1] [%] | AUC(0-24 hr) Drug ([1]; released payload 16) [ng·h/mL]
1 | COc1cc2cc(c1Cl)N(C)C(=O)CC(OC(=O)C(C)N(C)C(=O)CCSSCCC(=O)NCCCCOc1cc(CN(Cc3ccccn3)Cc3ccccn3)cc(CN(Cc3ccccn3)Cc3ccccn3)c1)C1(C)OC1C(C)C1CC(O)(NC(=O)O1)C(OC)C=CC=C(C)C2.O=[N+]([O-])[O-].O=[N+]([O-])[O-].O=[N+]([O-])[O-].O=[N+]([O-])[O-].[Zn+2].[Zn+2] [Compound 27a, (1S,2R,3S,5S,6S,16E,18Z,20R,21S)-11-Chloro-21-hydroxy-12,20-dimethoxy-2,5,9,16-tetramethyl-8,23-dioxo-4,24-dioxa-9,22-diazatetracyclo[19.3.1.1.^10,140^3,5]hexacosa-10(26),11,13,16,18-pentaen-6-yl (2S)-2-[{3-[(3-{[4-(3,5-bis{[bis(Pyridin-2-ylmethyl)amino]methyl}phenoxy)butyl]amino}-3-oxopropyl)disulfanyl]propanoyl}(methyl)amino]propanoate·2[Zn(NO3)2]] | 7051 | 11.5 | 2.6 | 462 | exhibited antitumor activities | significant body weight loss | – | – | – | –
2 | COc1cc2cc(c1Cl)N(C)C(=O)C[C@H](OC(=O)[C@H](C)N(C)C(=O)CCSSc1ccc(C(=O)NCCCCOc3cc(CN(Cc4ccccn4)Cc4ccccn4)cc(CN(Cc4ccccn4)Cc4ccccn4)c3)cc1)[C@]1(C)O[C@H]1[C@H](C)[C@@H]1C[C@@](O)(NC(=O)O1)[C@H](OC)/C=C\C=C(/C)C2.O=[N+]([O-])[O-].O=[N+]([O-])[O-].O=[N+]([O-])[O-].O=[N+]([O-])[O-].[Zn+2].[Zn+2] [Compound 27b, (1S,2R,3S,5S,6S,16E,18Z,20R,21S)-11-Chloro-21-hydroxy-12,20-dimethoxy-2,5,9,16-tetramethyl-8,23-dioxo-4,24-dioxa-9,22-diazatetracyclo[19.3.1.1.^10,140^3,5]hexacosa-10(26),11,13,16,18-pentaen-6-yl (2S)-2-[{3-[(4-{[4-(3,5-bis{[bis(Pyridin-2-ylmethyl)amino]methyl}phenoxy)butyl]carbamoyl}phenyl)disulfanyl]propanoyl}(methyl)amino]propanoate·2[Zn(NO3)2]] | 318 | 294 | 83 | 216 | exhibited antitumor activities | significant body weight loss | – | – | – | –
3 | COc1cc2cc(c1Cl)N(C)C(=O)C[C@H](OC(=O)[C@H](C)N(C)C(=O)CCSSCCC(=O)NCc1ccc(CNC(=O)COCCOCCOCC(=O)N(CCCCOc3cc(CN(Cc4ccccn4)Cc4ccccn4)cc(CN(Cc4ccccn4)Cc4ccccn4)c3)Cc3ccc(-c4ccccc4)cc3)cc1)[C@]1(C)O[C@H]1[C@H](C)[C@@H]1C[C@@](O)(NC(=O)O1)[C@H](OC)/C=C\C=C(/C)C2.O=[N+]([O-])[O-].O=[N+]([O-])[O-].O=[N+]([O-])[O-].O=[N+]([O-])[O-].[Zn+2].[Zn+2] [Compound 30] | 39025 | 2.5 | 0.5 | 242 | – | – | – | – | – | –
4 | CCCCCC(=O)Nc1cccc(CN(Cc2cc(CN(Cc3ccccn3)Cc3cccc(NC(=O)CCCCC)n3)cc(OCCCCNC(=O)CCSSCCC(=O)N(C)[C@@H](C)C(=O)O[C@H]3CC(=O)N(C)c4cc(cc(OC)c4Cl)C/C(C)=C/C=C\[C@@H](OC)[C@@]4(O)C[C@H](OC(=O)N4)[C@@H](C)[C@@H]4O[C@@]34C)c2)Cc2ccccn2)n1.O=[N+]([O-])[O-].O=[N+]([O-])[O-].O=[N+]([O-])[O-].O=[N+]([O-])[O-].[Zn+2].[Zn+2] [Compound 33, (1S,2R,3S,5S,6S,16E,18Z,20R,21S)-11-Chloro-21-hydroxy-12,20-dimethoxy-2,5,9,16-tetramethyl-8,23-dioxo-4,24-dioxa-9,22-diazatetracyclo[19.3.1.1.^10,140^3,5]hexacosa-10(26),11,13,16,18-pentaen-6-yl (2S)-2-[{3-[(3-{[4-(3,5-bis{[{[6-(Hexanoylamino)pyridin-2-yl]methyl}(pyridin-2-ylmethyl)amino]methyl}phenoxy)butyl]amino}-3-oxopropyl)disulfanyl]propanoyl}(methyl)amino]propanoate·2[Zn(NO3)2]] | 14379 | 6.8 | 0.5 | 270 | exhibited antitumor activities | significant body weight loss | – | – | – | –
5 | CCCCCC(=O)Nc1cccc(CN(Cc2cc(CN(Cc3ccccn3)Cc3cccc(NC(=O)CCCCC)n3)cc(OCCCCNC(=O)COCCOCCOCC(=O)NCc3ccc(CNC(=O)CCSSCCC(=O)N(C)[C@@H](C)C(=O)O[C@H]4CC(=O)N(C)c5cc(cc(OC)c5Cl)C/C(C)=C/C=C\[C@@H](OC)[C@@]5(O)C[C@H](OC(=O)N5)[C@@H](C)[C@@H]5O[C@@]45C)cc3)c2)Cc2ccccn2)n1.O=[N+]([O-])[O-].O=[N+]([O-])[O-].O=[N+]([O-])[O-].O=[N+]([O-])[O-].[Zn+2].[Zn+2] [Compound 36] | 14244 | 6.0 | 0.4 | 640 | – | – | potent antitumor efficacies | without apparent body weight loss | – | –
6 | CCCCCC(=O)Nc1cccc(CN(Cc2cc(CN(Cc3ccccn3)Cc3cccc(NC(=O)CCCCC)n3)cc(OCCCCN(Cc3ccc(-c4ccccc4)cc3)C(=O)COCCOCCOCC(=O)NCc3ccc(CNC(=O)CCC(C)(C)SSCCC(=O)N(C)[C@@H](C)C(=O)O[C@H]4CC(=O)N(C)c5cc(cc(OC)c5Cl)C/C(C)=C/C=C\[C@@H](OC)[C@@]5(O)C[C@H](OC(=O)N5)[C@@H](C)[C@@H]5O[C@@]45C)cc3)c2)Cc2ccccn2)n1.O=[N+]([O-])[O-].O=[N+]([O-])[O-].O=[N+]([O-])[O-].O=[N+]([O-])[O-].[Zn+2].[Zn+2] [Compound 40b] | 88387 | 1.0 | 0.2 | 91 | – | – | – | – | ~20 | –
7 | CCCCCC(=O)Nc1cccc(CN(Cc2cc(CN(Cc3ccccn3)Cc3cccc(NC(=O)CCCCC)n3)cc(OCCCCN(Cc3ccc(C(=O)NCCOCCOCCNC(=O)CCSSC(C)(C)CCC(=O)N(C)C(C)C(=O)OC4CC(=O)N(C)c5cc(cc(OC)c5Cl)CC(C)=CC=CC(OC)C5(O)CC(OC(=O)N5)C(C)C5OC45C)cc3)C(=O)C3(c4ccc(Cl)cc4)CCCCC3)c2)Cc2ccccn2)n1.O=[N+]([O-])[O-].O=[N+]([O-])[O-].O=[N+]([O-])[O-].O=[N+]([O-])[O-].[Zn+2].[Zn+2] (centres unmarked) [Compound 43] | 84916 | 1.0 | 0.2 | – | – | – | – | – | ~20 | 48
